This note sets out measurements from patent US20240043504A1 (published 2024).

The target in the experiment is SARS-COV-2 RBD extracellular domain expressed with a C-terminal mouse IgG2a (SARS-CoV-2). Description: SPR Biacore, mAb captured via anti-hFc, 25 C. For orientation: In SPR one partner is held on a chip, and binding of the other changes the refractive index at the surface.

B1: mAb10937 (antibody, V domains shown)
VH: QITLKESGPTLVKPTQTLTLTCTFSGFSLSTNVVGVGWIRQPPGKALEWLALIYWNDDKRYSPSLKSRLTITKDTSKNQVVLTMTNMDPVDTATYYCAHGPTGDYFDYWGQGTLVTVSS
VL: not shown
Turning to B1, the Kd was 0.0304 nM, the koff stood at 5.4e-05 s⁻¹, the kon is 1.78e+06 M⁻¹ s⁻¹ and the “t½” value came out at 3.56 h.

B2: mAb10936 (antibody, V domains shown)
VH: QVQLVESGGGVVQPGRSLRLSCAASGFTFRNYGMHWVRQAPGKGLEWVSVIWYDGSNRYYADSVKGRFTISRDTSKNTLYLQMNSLRAEDTAVYYCARDPPITGTTGGDAFDIWGQGTMVTVSS
VL: not shown
For the molecule B2, binding was put at a Kd of 0.0283 nM, the koff amounted to 5.04e-05 s⁻¹, the kon was found to be 1.78e+06 M⁻¹ s⁻¹ and the “t½” value was determined as 3.82 h.

B3: mAb10930 (antibody, V domains shown)
VH: EVQLVESGGGLVQPGRSLRLSCAASGFTFDDYAMYWVRQAPGKGLEWVSGISWNSGSIGYADSVKGRFTISRDNAKNSLYLQMNSLRAADTALYYCAKDKDWNSRGYYYYGMDVWGQGTTVTVSS
VL: not shown
As for B3, the Kd came to 0.181 nM, the off-rate (koff) was 0.000171 s⁻¹, the on-rate constant (kon) is 943000 M⁻¹ s⁻¹ and the “t½” value was determined as 1.12 h.

B4: mAb10921 (antibody, V domains shown)
VH: EVQLVESGGGLVQPGGSLRLSCAASGITVSSNYMSWVRQAPGKGLEWVSVIYSGGSTFYADSVKGRFTISRHNSKNTLYLQMNSLRAEDTAVYYCARERNFDAFDIWGQGTMVTVSS
VL: DIQMTQSPSSVSASVGDRVTITCRASQGISSWLAWYQQKPGKAPKLLIYAASSLQSGVPSRFSGSGSGTDFTLTISSLQPEDFATYYCQQANSFPLFTFGPGTKVDIKR
For the molecule B4, binding was put at a Kd of 0.125 nM, the off-rate constant (koff) was 3.34e-05 s⁻¹, the kon worked out at 266000 M⁻¹ s⁻¹ and the “t½” value came out at 5.76 h.

B5: mAb10915 (antibody, V domains shown)
VH: EVQLVESGGGLVQPGGSLRLSCAASGFTVSSNYMNWVRQAPGKGLEWVSVIYSGGSTFYADSVKGRFTISRHNSKNTLYLQMNSLRPEDTAVYYCARDLGGYFDYWGQGTLVTVSS
VL: not shown
Take B5: the Kd came to 0.0323 nM and the “t½” value came out at 21.1 h.

B6: mAb10965 (antibody, V domains shown)
VH: EVQLVESGGGLIQPGGSLRLSCAASVFTVSYNYMSWVRQAPGKGLEWVSVIYSGGSTYYADSVKGRFTISRDNSKNTLYLQMNSLRAEDTAVYYCARALPGWGGSFEYFDYWGQGTLVTVSS
VL: not shown
For the molecule B6, the Kd came out at 0.225 nM and the “t½” value stood at 1.23 h.

B7: mAb10913 (antibody, V domains shown)
VH: EVQLVESGGGLVQPGGSLRLSCAASGFTFRNYEMNWVRQAPGKGLEWVSYITSSGSTMYYADSVKGRFTISRDNAKNSLYLQMNSLRAEDTAVYYCARDGFYYYYAMDVWGQGTTVTVSS
VL: QSVLTQPPSVSAAPGQKVTISCSGSSSNIGNNYVSWYQQLPGTAPKLLIYDNNKRPSGIPDRFSGSKSGTSATLGITGLQTGDEADYYCGTWDSSLSVGRVFGTGTKVTVLG
B7: the Kd turned out to be 0.0553 nM, the dissociation rate constant (koff) was found to be 0.000277 s⁻¹, the kon turned out to be 5e+06 M⁻¹ s⁻¹ and the “t½” value was 0.695 h.

B8: mAb10932 (antibody, V domains shown)
VH: EVQLVESGGGLVQSGGSLRLSCAASGLTVSSNYMSWVRQAPGKGLEWVSVIYSGGSTFYSDSVKGRFTISRHNSKNTLYLQMNSLRAEDTAVYYCARARGDAFDIWGQGTMVTVSS
VL: not shown
Turning to B8, the Kd is 0.0967 nM, the koff was determined as 2.85e-05 s⁻¹, the kon amounted to 295000 M⁻¹ s⁻¹ and the “t½” value is 6.75 h.

B9: mAb10939 (antibody, V domains shown)
VH: EVQLVESGGGLVQPGGSLRLSCAASGLTVSSNYMNWVRQVPGKGLEWVSVIYSGGSKFYVDSVKGRFTISRHNSKNTLYLQMNSLRPEDTAVYYCTRDAQYYGMDVWGQGTTVTVSS
VL: DIQMTQSPSSLSASVGDRVTITCRASQSISTYLHWYQQKPGEAPKLLIYAASSLQSGVPSRFSGSGSGTDFTLTISSLQPEDFATYYCQQSYSTPPEIFGQGTKLEIKR
Consider B9, for which binding was characterised by a dissociation constant (Kd) of 0.121 nM, the koff turned out to be 8.74e-05 s⁻¹, the kon worked out at 722000 M⁻¹ s⁻¹ and the “t½” value worked out at 2.2 h.

B10: mAb10920 (antibody, V domains shown)
VH: QVQLVESGGGVVQPGRSLRLSCAASGFTFSYYGMHWVRQAPGKGLEWVAVIWYDGSNKFYADSVKGRFTISRDNSKNTLYLQMNSLRAEDTAVYYCAAARPGYYYGMDVWGQGTTVTVSS
VL: DIQMTQSPSSLSASVGDRVTITCRASQGISNYLAWFQQKPGKAPNSLIYAASSLQRGVPSKFSGSGSGTDFTLTISSLQPEDFATYYCQQYNSYPRTFGQGTKVEIKR
For the molecule B10, the Kd turned out to be 0.0502 nM and the “t½” value was 0.755 h.

B11: mAb10966 (antibody, V domains shown)
VH: EVQLVESGGGLVQPGGSLRLSCAASGLTVSSNYMSWVRQAPGKGLEWVSVIYSGGSTFYADSVKGRFTISRDNSKNTLYLQMNSLRPEDTAVYYCAREGRIAATGYGMDVWGQGTTVTVSS
VL: not shown
As to B11, the Kd amounted to 0.0224 nM and the “t½” value was found to be 5.71 h.

B12: mAb10914 (antibody, V domains shown)
VH: EVQLVESGGGLVQPGGSLRLSCAASGLIVSRNYMIWVRQAPGKGLEWVSVIYSGGSTFYADSVKGRFTISRHNSKNTLYLQMNSLRAEDTAVYYCARDLGTGGMDVWGQGTTVTVSS
VL: DIQLTQSPSFLSASVGDRVTITCWASQGISSYLAWYQQKPGKAPKLLIYAASTLQSGVPSRFSGSGSGTEFTLTISSLQPEDFATYYCQQLNSYPLTFGGGTKVEIKR
Regarding B12, the Kd amounted to 0.54 nM and the “t½” value is 1.38 h.

B13: mAb10957 (antibody, V domains shown)
VH: EVQLVESGGGLVQPGGSLRLSCAASGVTVSSNYMSWVRQAPGKGLEWVSVIYSGGSTFYADSVKGRFTISRDNSKNTLFLQMNSLRIEDTAVYYCARDLGPYGMDVWGQGTTVTVSS
VL: DIQLTQSPSFLSASVGDRVTITCRASQGISSYLAWYQQKPGKAPKLLIYAASTLQSGVPSRFSGSGSGTQFILTISSLQPEDFATYYCQQLNSYPGFTFGPGTKVDIKR
Take B13: the Kd stood at 0.0327 nM and the “t½” value is 5.75 h.

B14: mAb10956 (antibody, V domains shown)
VH: EVQLVESGGGLVQPGGSLRLSCAASGLTVSSNYMSWVRQAPGKGLEWVSVIYSGGSTFYADSVKGRFTISRDNSKNTLYLQMNSLRAEDTAVYYCARDLIKYGMDVWGQGTTVTVSS
VL: not shown
With B14, the Kd was 0.0887 nM and the “t½” value is 1.48 h.

B15: mAb10934 (antibody, V domains shown)
VH: not shown
VL: DIQMTQSPSSLSASVGDRVTITCQASQDIWNYINWYQQKPGKAPKLLIYDASNLKTGVPSRFSGSGSGTDFTFTISSLQPEDIATYYCQQHDDLPPTFGQGTKVEIKR
With B15, binding was characterised by a dissociation constant (Kd) of 0.0139 nM.

B16: mAb10954 (antibody, V domains shown)
VH: EVQLVESGGGLVQPGGSLRLSCAASGITVSSNYMSWVRQAPGKGLEWVSLIYSGGSTYYADSVKGRFTISRDNSKNTLYLQMNSLRVEDTAVYYCARDHGMAAAGYNYWGQGTLVTVSS
VL: DIQMTQSPSSLSASVGDRVTITCQASQDINKYLNWYQQKPGKAPKLLIYDASNLETGVPSRFSGSGSGTDFTFTINSLQPEDFATYFCQQYDNLPPAFGQGTKVEIKR
For B16, the equilibrium dissociation constant (Kd) came out at 0.0203 nM and the “t½” value is 4.03 h.

B17: mAb10935 (antibody, V domains shown)
VH: EVQLVESGGGLVQPGGSLRLSCAASGFTVSSNYMSWVRQAPGKGLEWVSLIYSGGSTYYADSVKGRFTISRHNSKNTLYLQMNSLRSEDTAVYYCARVPLGDYYYGMDVWGQGTTVTVSS
VL: DIQMTQSPSSLSASVGDRVTITCQASQDINKYLNWYQQKPGKAPKLLIYDASNLETGVPSRFSGSGSGTDFTFTISSLQPEDIATYYCQQSDNLPLTFGGGTKVEIKR
Take B17: the affinity, expressed as Kd, was 0.0794 nM; the koff came to 0.000107 s⁻¹; the kon was determined as 1.35e+06 M⁻¹ s⁻¹; the “t½” value was found to be 1.8 h.

B18: mAb10967 (antibody, V domains shown)
VH: EVQLVESGGGLVQPGGSLRLSCAASGFTVSSNYMSWVRQAPGKGLEWVSVIYPGGSTFYADSVKGRFTISRDNSKNTLYLQMNSLRAEDTAVYYCARDQRDFAWGQGTLVTVSS
VL: DIQMTQSPSSLSASVGDRVTITCQASQDISNYLNWYQQKPGKAPKLLIYDASNLETGVPSRFSGSGSGTDFTFTISGLQPEDIATYYCQQYDNLPPTFGQGTRLEIKR
With B18, binding was characterised by a dissociation constant (Kd) of 0.0203 nM and the “t½” value stood at 14.3 h.

B19: mAb10938 (antibody, V domains shown)
VH: EVQLVESGGGLVQPGGSLRLSCAVSGFTVSSNYMSWVRQAPGKGLEWVSLIYSGGSTFYADSVKGRFTISRHNSKNTLYLQMNSLRAEDTAVYYCAREGGYSYDYNYWGQGTLVTVSS
VL: DIQMTQSPSSLSASVGDRVTITCQASQDIRNYLNWYQQKPGKAPKLLIYDASNLETGVPSRFSGIGSGTDFTFTISSLQPEDIATYYCQQYDNLPITFGQGTRLEIKR
As for B19, binding was put at a Kd of 0.0702 nM and the “t½” value was found to be 11.4 h.

B20: mAb10955 (antibody, V domains shown)
VH: EVQLVESGGGLVQPGGSLRVSCAASGFTVSRNYMSWVRQAPGKGLEWVSVIYSGGSTFYADSVKGRFTISRDNSKNTLYLQMNSLRAEDTAIYYCARYIPRFDPWGQGTLVTVSS
VL: DIQMTQSPSSLSASVGDRVTITCQASQDISNYLNWFQQKPGRAPKLLIYDASNLETGVPSRFSGSGSGTDFTFTISSLQPEDIATYYCQQYDNLPITFGQGTRLEIKR
On to B20, for which binding was characterised by a dissociation constant (Kd) of 0.0771 nM and the “t½” value was 2.09 h.

B21: mAb10964 (antibody, V domains shown)
VH: QVQLQESGPGLVKPSETLSLTCTVSGGSINNYYWIWIRQPPGKGLEWIGYIYHSGSTNYNPSLKSRVTISVDTSKNQFSLKVSSVTAADTAVYYCANMVRGVYEDDYWGQGTLVTVSS
VL: DIQMTQSPSSLSASVGDRVTITCRASQSISNYLNWYQQKPGKAPKLLIFAASSLRSGVPSRFSGSGSGTDFTLTISSLHPEDFATYYCQQNYNTPLTFGPGTKVDIKR
With B21, binding was put at a Kd of 0.00397 nM and the “t½” value was determined as 5.22 h.

B22: mAb10923 (antibody, V domains shown)
VH: QVQLVQSGAEVKKPGASVKVSCKASGYTFINYYIHWVRQAPGQGLEWMGWINPNSGGTNYAQKFQGRVTMTRDTSISTAYMELSRLRSDDTAVYYCAIITIFGVVTWFDPWGQGTLVTVSS
VL: not shown
Consider B22, for which binding was characterised by a dissociation constant (Kd) of 0.0367 nM, the koff was found to be 0.000135 s⁻¹, the association rate constant (kon) was determined as 3.69e+06 M⁻¹ s⁻¹ and the “t½” value was 1.43 h.

The Kd is the constant that tells how readily two partners part at equilibrium. Lower therefore signals tighter binding. Usually koff stands for the rate constant with which the complex falls apart. A word on the kon: it is the rate constant with which the complex forms. Low readings indicate slower complex formation, high ones faster complex formation. By t½ is commonly meant how long it takes for the measured level to halve.
